# PMC3806662
# Target: BiP (human (endogenous in HEK293T)) (UniProt P11021)
# Assay: co-IP
# Chain of UniProt P11021 (P11021 19-654): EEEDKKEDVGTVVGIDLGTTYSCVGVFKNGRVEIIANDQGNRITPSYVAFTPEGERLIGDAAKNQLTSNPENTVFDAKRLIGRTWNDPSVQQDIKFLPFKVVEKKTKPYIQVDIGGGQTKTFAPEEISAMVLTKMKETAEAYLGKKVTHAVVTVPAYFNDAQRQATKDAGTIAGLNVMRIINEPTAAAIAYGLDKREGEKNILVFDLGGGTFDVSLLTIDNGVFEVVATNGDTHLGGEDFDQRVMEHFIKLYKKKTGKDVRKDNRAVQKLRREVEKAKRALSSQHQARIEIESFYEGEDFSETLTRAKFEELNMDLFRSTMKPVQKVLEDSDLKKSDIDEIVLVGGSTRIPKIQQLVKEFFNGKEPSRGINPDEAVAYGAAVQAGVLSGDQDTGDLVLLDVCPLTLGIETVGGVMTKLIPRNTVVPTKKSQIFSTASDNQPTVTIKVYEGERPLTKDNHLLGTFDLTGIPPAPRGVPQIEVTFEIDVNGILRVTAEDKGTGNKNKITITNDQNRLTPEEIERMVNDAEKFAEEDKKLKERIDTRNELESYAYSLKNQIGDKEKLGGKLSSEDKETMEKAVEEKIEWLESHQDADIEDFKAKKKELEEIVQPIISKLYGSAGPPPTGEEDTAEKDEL
substance,measurement,value
QQQ mutant of NHK (from UniProt P01009 25-418) (natural protein),fold co-precipitated relative to NHK,2 fold
